Publication PMC2323369, “Identification of a GTP-bound Rho specific scFv molecular sensor by phage display selection” (BMC Biotechnology, 2008)

Assays:
[1] = biological target: T1, GST-RhoB (wild type) (Homo sapiens (assumed), UniProt P62745); experiment: ELISA; GST proteins loaded with 200 μM GTPγS for 30 min and purified on glutathione ELISA plates; 10^10 clones of C1 phages in each well; anti-M13-HRP, TMB; details: one partner purified
T1 construct: Loaded with GDP, GTP or GTPγS as told in each assay; The immunoprecipitation speaks only of recombinant RhoB without naming the GST; also called recombinant RhoB; source: E. coli BL21, purified on glutathione-coated plates; crude bacterial lysate (immunoprecipitation); not shown: GST, N-terminal, kept

[2] = biological target: T2, GST-Cdc42 (Homo sapiens (assumed), UniProt P60953); experiment: as above; details: one partner purified
T2 construct: Cdc42, from a pGEX plasmid provided by Dr. A. Blangy; Loaded with GDP, GTP or GTPγS as told in each assay; also called GTP-Cdc42; source: E. coli BL21, purified on glutathione-coated plates

[3] = biological target: T3, GST-Rac1 (Homo sapiens (assumed), UniProt P63000); experiment: as above; details: one partner purified
[4] = biological target: T4, GST-RhoC (wild type) (Homo sapiens (assumed), UniProt P08134); experiment: as above; details: one partner purified
T4 construct: Loaded with GDP or GTPγS as told in each assay; source: E. coli BL21, purified on glutathione-coated plates; not shown: GST, N-terminal, kept

[5] = biological target: T1, GST-RhoB (wild type); experiment: pull-down; scFv C1-N1N2 from crude bacterial extract fixed on Ni-NTA beads; crude bacterial lysate with recombinant RhoA or RhoB loaded with 0.2 mM GTPγS (PBS, 10 mM EDTA, 30 min, 30°C); 45 min at 4°C; blot with anti-RhoA or anti-RhoB; called immunoprecipitation; details: one partner purified
[6] = biological target: T2, GST-Cdc42; experiment: ELISA; competition ELISA on a RhoAQ63L coated plate: scFvC1-N1N2 (0.4 μM) competed by increasing concentrations of GST-RBD, GDP bound RhoA, GTP bound Cdc42, GTP bound Rac1
[7] = biological target: T3, GST-Rac1; experiment: as above
[8] = biological target: T5, GST-RhoAQ63L (UniProt P61586 1-193, Q63L); experiment: ELISA + SPR; competition ELISA on a RhoAQ63L coated plate (scFvC1-N1N2 0.4 μM competed by increasing GST-RBD); KD of GST-RBD also determined by SPR on GST-RhoAQ63L
T5 construct: GTP-locked mutant; source: E. coli BL21, purified on glutathione-coated plates; not shown: GST, N-terminal, kept
T5 sequence (P61586 whole entry Q63L): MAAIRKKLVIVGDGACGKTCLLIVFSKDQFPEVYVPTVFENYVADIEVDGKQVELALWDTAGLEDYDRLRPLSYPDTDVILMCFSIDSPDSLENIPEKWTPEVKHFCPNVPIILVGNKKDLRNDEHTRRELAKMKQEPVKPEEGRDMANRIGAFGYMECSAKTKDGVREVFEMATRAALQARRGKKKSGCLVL

T2 sequence (P60953 whole entry): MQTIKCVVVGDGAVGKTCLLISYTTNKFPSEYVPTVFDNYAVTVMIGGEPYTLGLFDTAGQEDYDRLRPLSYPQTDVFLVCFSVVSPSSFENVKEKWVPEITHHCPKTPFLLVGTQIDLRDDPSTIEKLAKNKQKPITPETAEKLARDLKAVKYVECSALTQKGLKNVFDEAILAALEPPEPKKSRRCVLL
T1 sequence (P62745 whole entry): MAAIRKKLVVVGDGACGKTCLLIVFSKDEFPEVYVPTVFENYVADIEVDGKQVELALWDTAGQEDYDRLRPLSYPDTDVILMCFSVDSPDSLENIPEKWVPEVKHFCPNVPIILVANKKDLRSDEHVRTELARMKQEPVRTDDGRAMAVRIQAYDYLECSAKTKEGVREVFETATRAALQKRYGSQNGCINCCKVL
T4 sequence (P08134 whole entry): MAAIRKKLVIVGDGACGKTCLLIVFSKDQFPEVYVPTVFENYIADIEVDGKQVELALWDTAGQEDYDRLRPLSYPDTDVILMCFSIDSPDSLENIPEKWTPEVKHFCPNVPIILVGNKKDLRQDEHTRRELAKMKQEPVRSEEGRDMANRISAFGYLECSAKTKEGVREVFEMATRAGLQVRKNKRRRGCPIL

B1: C1 phage (scFv C1-pIII fusion protein displayed on phage) (scFv, V domains shown)
VH: not shown
VL: SSELTQDPAVSVALGQTVRITCQGDSLRSYYASWYQQKPGQAPVLVIYGKNNRPSGIPDRFSGSSSGNTASLTITGAQAEDEADYYCNSRDSSGNHAYVFGGGTKLTVL
notes: VH of scFv C1 (human synthetic, Griffin.1 library); linker between VH and VL of the Griffin.1 library vector pHEN2; VL of scFv C1 (human synthetic, Griffin.1 library); source: monoclonal phage from E. coli supernatant (Griffin.1 library, phagemid pHEN2); not shown: 6xHis, C-terminal, kept; myc, C-terminal, kept
B1: binds [1]; no binding (tested: 10^10 clones of C1 phages) [2]; no binding (tested: 10^10 clones of C1 phages) [3]. B1: binds [4].

B2: scFv C1-N1N2 (scFv, V domains shown)
VH: not shown
VL: SSELTQDPAVSVALGQTVRITCQGDSLRSYYASWYQQKPGQAPVLVIYGKNNRPSGIPDRFSGSSSGNTASLTITGAQAEDEADYYCNSRDSSGNHAYVFGGGTKLTVL
notes: VH of scFv C1, as in m1; linker between VH and VL of the vector pHEN2, as in m1; VL of scFv C1, as in m1; N-terminal portions N1 and N2 of the phage coat protein pIII of M13 (vector pHEN2); the C-terminal portion of pIII removed; The amber codon between the tags and gene III was mutated so that translation runs into pIII; an EcoRI site was put in after N2; Predicted mass 60 kDa; Smaller proteins …
For B2, the binding result [5] was “binds”, the Kd [6] was > 50 µM and the binding result [6] was “no binding (tested: > 50 μM)”. The Kd [7] was > 50 µM and the binding result [7] was “no binding (tested: > 50 μM)”.

B3: GST-RBD (Rho binding domain of Rhotekin fused to GST) (domain or fragment)
chain: ILEDLNMLYIRQMALSLEDTELQRKLDHEIRMRDGACKLLAACSQREQALEATKSLLVCNSRILSYMGELQRRKEAQVLEKTG
In the case of B3, the Kd [8] is reported as 0.2 ± 0.2 µM.
